Reference: PMC10302166, “Molecular basis and dual ligand regulation of tetrameric estrogen receptor α/14-3-3ζ protein complex” (The Journal of Biological Chemistry, 2023)
Where no end group is shown, it is not given here. [ ]: non-standard residue; d: D form. pT = C[C@@H](OP(=O)(O)O)[C@H](N)C(=O)O

Key:
[1] = biological target: T1, ERα(PKA)-strep phosphopeptide (fluorescein-labeled, pT594, with C-terminal strep-tag) (human (from the printed UniProt entry)); test: fluorescence polarisation; fluorescence anisotropy; 14-3-3ζ titrated (2-fold series from 300 μM) to 2 nM fluorescein-labeled ERα peptide; 20 mM HEPES pH 7.5, 150 mM NaCl, 10 mM MgCl2, 0.1% Tween20, 0.1% BSA; room temperature; apparent
[2] = biological target: T1, ERα(PKA)-strep phosphopeptide (fluorescein-labeled, pT594, with C-terminal strep-tag) (human); test: fluorescence polarisation; as a13 in the presence of a 2-fold dilution series of 3′de-Ac FC-A (0.015–250 μM); cooperativity analysis of the ternary 14-3-3/peptide/FC-A complex
[3] = biological target: ERα(PKA) phosphopeptide (fluorescein-labeled C-terminal peptide mimic with F591R/P592R, pT594) (human (from the printed UniProt entry)); test: as above
[4] = biological target: fluorescein-labeled SRC-1 cofactor peptide (LXXLL motif of SRC-1/NCoA-1); test: fluorescence polarisation; fluorescence anisotropy; ERα or complex titrated (2-fold series from 40 μM ERα) to 20 nM fluorescein-labeled SRC1 peptide; DMSO control; 20 mM HEPES pH 7.5, 150 mM NaCl, 10 mM MgCl2, 0.1% Tween20, 0.1% BSA; room temperature; apparent KD (4PL fit)
[5] = biological target: fluorescein-labeled SRC-1 cofactor peptide (LXXLL motif of SRC-1/NCoA-1); test: fluorescence polarisation; as a10 but in the presence of 100 μM E2; apparent KD
[6] = biological target: T2, 14-3-3ζ-strep (human, UniProt P63104 1-245); test: AUC; sedimentation velocity, 20 °C, 20 mM HEPES pH 7.5, 150 mM NaCl, 10 mM MgCl2, 0.5 mM TCEP; 10 μM single proteins, 10 or 30 μM complex; complex also with added 14-3-3ζ (up to six equivalents) or 20 μM E2 or 4-OHT; KD estimated from peak areas (KD = [A][B]/[AB]), dimer to dimer
T2 chain: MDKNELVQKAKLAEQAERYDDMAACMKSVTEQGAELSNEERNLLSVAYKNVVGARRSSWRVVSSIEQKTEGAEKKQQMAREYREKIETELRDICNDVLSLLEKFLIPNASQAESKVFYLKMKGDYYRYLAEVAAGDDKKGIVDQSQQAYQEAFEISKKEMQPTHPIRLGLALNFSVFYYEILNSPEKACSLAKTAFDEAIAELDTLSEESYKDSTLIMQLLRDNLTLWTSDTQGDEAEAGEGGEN

[7] = biological target: ERα LBD-F domain, PKA-responsive (F591R/P592R), phosphorylated at T594, as in the co-purified ERα/14-3-3ζ complex after SUMO cleavage (human (from the printed UniProt entry)) (UniProt P03372); test: as above
[8] = biological target: T2, 14-3-3ζ-strep; test: quantitative LC-QToF-MS of the purified complex; concentrations of 14-3-3ζ and ERα in dilutions of the purified complex read from calibration series of 14-3-3ζ-strep and ERα-pT594-strep
[9] = biological target: the molecule itself; test: SEC; analytical SEC, Superdex200 increase 3.2/300, 20 mM Tris pH 7.5, 150 mM NaCl, 10 mM MgCl2, 0.5 mM TCEP; 10 μM 14-3-3ζ, 10 μM ERα-strep, 20 μM complex; BSA as size reference
[10] = biological target: T2, 14-3-3ζ-strep; test: FP
[11] = biological target: T2, 14-3-3ζ-strep; test: FP
[12] = biological target: T3, 14-3-3ζ-strep (human), P63104; test: AUC; sedimentation velocity, 20 °C, 20 mM HEPES pH 7.5, 150 mM NaCl, 10 mM MgCl2, 0.5 mM TCEP; 10 μM single proteins, 10 or 30 μM complex; complex also with added 14-3-3ζ (up to six equivalents) or 20 μM E2 or 4-OHT; KD estimated from peak areas (KD = [A][B]/[AB]), dimer to dimer; details: remark: other sources report otherwise
T3 chain: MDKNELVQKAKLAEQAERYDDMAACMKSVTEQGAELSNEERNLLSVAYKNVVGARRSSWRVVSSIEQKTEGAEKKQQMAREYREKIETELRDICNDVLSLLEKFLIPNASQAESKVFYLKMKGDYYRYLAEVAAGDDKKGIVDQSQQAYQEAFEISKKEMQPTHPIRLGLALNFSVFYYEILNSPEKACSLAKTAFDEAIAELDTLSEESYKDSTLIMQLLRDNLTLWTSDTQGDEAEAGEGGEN

[13] = biological target: T3, 14-3-3ζ-strep (human), P63104; test: SEC; analytical SEC, Superdex200 increase 3.2/300, 20 mM Tris pH 7.5, 150 mM NaCl, 10 mM MgCl2, 0.5 mM TCEP; 10 μM 14-3-3ζ, 10 μM ERα-strep, 20 μM complex; BSA as size reference; details: remark: other sources report otherwise

Molecule “14-3-3ζ-strep (from UniProt P63104 1-245) (natural protein)” has a fold reduction in binding affinity against the ERα peptide without strep-tag [1] of 50 fold, a cooperativity factor (α) of FC-A stabilisation [2] of 15 and a cooperativity factor (α) of FC-A stabilisation [3] of 366.

In the case of “ERα/14-3-3ζ protein complex (tetramer of an ERα homodimer and a 14-3-3ζ homodimer) (from UniProt P03372 302-595; P63104 1-245)”, the Kd [4] is reported as 9600 nM and the Kd [5] is reported as 600 nM.

Work on “ERα LBD-F domain, PKA-responsive (F591R/P592R), phosphorylated at T594, as in the co-purified ERα/14-3-3ζ complex after SUMO cleavage (from UniProt P03372 302-595) (domain or fragment)” yielded a Kd [6] of 32 nM, a stoichiometry N (ERα:14-3-3ζ (2:2)) [6] of 1 and a stoichiometry N [7] of 2. For the same molecule, the stoichiometry N [8] was 1 ERα:14-3-3ζ.

B1: ERαLBD-F-strep (PKA-responsive, non-phosphorylated) (domain or fragment, human (from the printed UniProt entry), UniProt P03372 302-595, looked up)
chain: KKNALALSLTADQMVSALLDAEPPILYSEYDPTRPFSEASMMGLLTNLADRELVHMINWAKRVPGFVDLTLHDQVHLLECAWLEILMIGLVWRSMEHPGKLLFAPNLLLDRNQGKCVEGMVEIFDMLLATSSRFRMMNLQGEEFVCLKSIILLNSGVYTFLSSTLKSLEEKDHIHRVLDKITDTLIHLMAKAGLTLQQQHQRLAQLLLILSHIRHMSNKGMEHLYSMKCKNVVPLYDLLLEMLDAHRLHAPTSRGGASVEETDQSHLATAGSTSSHSLQKYYITGEAEGRRATV
notes: also called ERα-strep; ERα(PKA)-strep; source: E. coli NiCo21 (DE3), purified (Ni-NTA, SUMO cleavage, Strep-Tactin, SEC); not shown: His tag, N-terminal, cleaved; SUMO, N-terminal, cleaved; strep-tag, C-terminal, kept
With B1 the “stoichiometry N” value [9] was 2.

AEGRRA[pT]V (also: fluorescein label, position not given here) [ERα(PKA) phosphopeptide (fluorescein-labeled C-terminal peptide mimic with F591R/P592R, pT594)] showed a Kd [10] of 300 nM.

Work on AEGRRA[pT]VPWSHPQFEK (also: fluorescein label, position not given here) [ERα(PKA)-strep phosphopeptide (fluorescein-labeled, pT594, with C-terminal strep-tag)] yielded a Kd [11] of 14000 nM.

AEGFPA[pT]V (also: fluorescein label, position not given here) [WT ERα phosphopeptide (fluorescein-labeled C-terminal peptide mimic, pT594)] showed a Kd [10] of 2200 nM.

B2: 14-3-3ζ-strep, P63104 1-245 (natural protein)
chain: MDKNELVQKAKLAEQAERYDDMAACMKSVTEQGAELSNEERNLLSVAYKNVVGARRSSWRVVSSIEQKTEGAEKKQQMAREYREKIETELRDICNDVLSLLEKFLIPNASQAESKVFYLKMKGDYYRYLAEVAAGDDKKGIVDQSQQAYQEAFEISKKEMQPTHPIRLGLALNFSVFYYEILNSPEKACSLAKTAFDEAIAELDTLSEESYKDSTLIMQLLRDNLTLWTSDTQGDEAEAGEGGEN
B2 gave a stoichiometry N [12] of 2 and a stoichiometry N [13] of 2.
